Measurements as given in patent US20190382475A1 (Novartis, published 2019).
Positions count from the first letter of the chain named. Each block holds one binder with its values, some of them ahead of it.

Legend:
[1] = biological target: recombinant human IL-17 (human, UniProt Q16552 24-155, limits assumed); assay: SPR, BIAcore T200, antibody on chip, recombinant human antigen as analyte, steady state analysis; first value taken for antibody 1 arm (IL-17); IL-17 arm (Antibody 1), first value of the cell
Protocol: (§1) A direct binding assay was performed to characterize the binding of the engineered antibodies against their antigen. Kinetic binding affinity constants (KD) were measured on protein-A captured protein using recombinant human antigens as analyte. Measurements were conducted on a BIAcore® T200 (GE Healthcare, Glattbrugg, Switzerland) at room temperature. […] To serve as reference, one flow cell was blank immobilized. Binding data were acquired by subsequent injection of analyte dilutions series on the reference and measuring flow cell. Zero concentration samples (running buffer only) were included to allow double referencing during data evaluation. For data evaluation, doubled referenced sensograms were used and analyzed by steady state analysis to generate the equilibrium dissociation constant (KD).

[2] = biological target: T1, recombinant human HER3 (human, UniProt P21860 20-643, limits assumed); assay: SPR, BIAcore T200, antibody on chip, recombinant human antigen as analyte, steady state analysis; second value taken for antibody 2 arm (HER3); HER3 arm (Antibody 2), second value of the cell
Protocol: as §1

[3] = biological target: T2, recombinant human c-Kit (human, UniProt P10721 26-520, limits assumed); assay: SPR, BIAcore T200, antibody on chip, recombinant human antigen as analyte, steady state analysis; first value taken for antibody 1 arm (c-Kit); c-Kit arm (Antibody 1), first value of the cell
Protocol: as §1

[4] = biological target: T2, recombinant human c-Kit; assay: SPR, BIAcore T200, antibody on chip, recombinant human antigen as analyte, steady state analysis; second value taken for antibody 2 arm (c-Kit); c-Kit arm (Antibody 2), second value of the cell
Protocol: as §1

[5] = biological target: T2, recombinant human c-Kit; assay: SPR, BIAcore T200, antibody on chip, recombinant human antigen as analyte, steady state analysis
Protocol: as §1

[6] = biological target: T1, recombinant human HER3; assay: as above
Protocol: as §1

B1: Mutated IL-17/Mutated HER3 (b) heterodimeric antibody (bispecific antibody)
heavy 1: not shown
light 1: AIQLTQSPSSLSASVGDRVTITCRPSQGINWELAWYQDKPGKAPKLLIYDASSLEQGVPSRFSGSGSGTDFTLTISSLQPEDFATYYCQQFNSYPLTFGGGTKVEIKRTVAAPSVFIFPPSDEKLKSGTASVVCLLNNFYPREAKVQWKVDNALQSGNSQESVTEQDSDDSTYSLSSTLTLSKADYEKHKVYACEVTHQGLSSPVTKSFNRGEC
heavy 2: not shown
light 2: DIQMTQSPSSLSASVGDRVTITCRASQGISNWLAWYQKKPGKAPKLLIYGASSLQSGVPSRFSGSGSGTDFTLTISSLQPEDFATYYCQQYSSFPTTFGQGTKVEIKRTVAAPSVFIFPPSDEDLKSGTASVVCLLNNFYPREAKVQWKVDNALQSGNSQESVTEQDSKDSTYSLSSTLTLSKADYEKHKVYACEVTHQGLSSPVTKSFNRGEC
notes: IgG1 bispecific
- Kd [1]: 0.01 nM
- Kd [2]: 4 nM

B2: Mutated c-Kit/Mutated HER3 (a) heterodimeric antibody (bispecific antibody)
heavy 1: not shown
light 1: DIQMTQSPSSLSASVGDRVTITCRASQSISSYLNWYQKKPGKAPKLLIYYTSRLQSGVPSRFSGSGSGTDFTLTISSLQPEDFATYYCQQGRRLWSFGGGTKVEIKRTVAAPSVFIFPPSDEDLKSGTASVVCLLNNFYPREAKVQWKVDNALQSGNSQESVTEQDSKDSTYSLSSTLTLSKADYEKHKVYACEVTHQGLSSPVTKSFNRGEC
heavy 2: not shown
light 2: B1 light 2 with K38D, D124K, K169D
notes: IgG1 bispecific
- Kd [3]: 22 nM
- Kd [2]: 0.4 nM

B3: Mutated IL-17/Mutated c-Kit heterodimeric antibody (bispecific antibody)
heavy 1: not shown
light 1: B1 light 1
heavy 2: not shown
light 2: B2 light 1
notes: IgG1 bispecific
- Kd [4]: 20 nM
- Kd [1]: 0.07 nM

Other lines, results leading:

- Kd [5]: 20 nM
B4: anti-c-Kit antibody, parental IgG1 (antibody, V domains shown)
VH: EVQLVESGGGLVQPGGSLRLSCAASGFAFSGYYMAWVRQAPGKGLEWVANINYPGSSTYYLDSVKGRFTISRDNAKNSLYLQMNSLRAEDTAVYYCARGDYYGTTYWYFDVWGQGTTVTVSS
VL: DIQMTQSPSSLSASVGDRVTITCRASQSISSYLNWYQQKPGKAPKLLIYYTSRLQSGVPSRFSGSGSGTDFTLTISSLQPEDFATYYCQQGRRLWSFGGGTKVEIKR
notes: Parental, unmutated IgG1, VH3/Vk1, made in-house

- Kd [6]: 1 nM
B5: anti-HER3 antibody, parental IgG1 (antibody, V domains shown)
VH: EVQLLESGGGLVQPGGSLRLSCAASGFTFSSYAMSWVRQAPGKGLEWVSVTGAVGRSTYYPDSVKGRFTISRDNSKNTLYLQMNSLRAEDTAVYYCARWGDEGFDIWGQGTLVTVSS
VL: DIQMTQSPSSLSASVGDRVTITCRASQGISNWLAWYQQKPGKAPKLLIYGASSLQSGVPSRFSGSGSGTDFTLTISSLQPEDFATYYCQQYSSFPTTFGQGTKVEIKR
notes: Parental, unmutated IgG1
